Where only a bound is given, the exact number is not on record here.

In assay [1] the target is T1, cathepsin B (Homo sapiens, UniProt P07858).
T1 construct: purchased Calbiochem or Athens Research and Technology
Description: Protease specificity of Spi2A: cathepsin B. The class given is biochemical. As to conditions: protease 20 nM, Spi2A 200 nM, 1 h at 37° C; FIG. 6B. The protocol:
Protease specificity of Spi2A. RelA^−/− MEFs were transduced with retrovirus encoding Spi2A with a C-terminal 3×FLAG epitope tag and Spi2A-3×FLAG purified using a method described previously (Cooley et al., 1998). Briefly, cells (3×10^9) were lysed and Spi2A-3×FLAG (75 μg) purified by batch Q-Fast Flow ion-exchange chromatography (Pharmacia Biotech) after elution at 160-220 mM NaCl followed by anti-FLAG antibody columns, performed according to manufacturer's instructions (Sigma-Aldrich). Spi2A-3×FLAG was dialysed into PBS and stored as aliquots at −80° C. until needed.
Proteases were purchases from the manufacturers (Calbiochem or Athens Research and Technology) except granzymes A and B which were purified as described (Hanna et al., 1993) and cathespin V and K, which were purified as described (Bromme et al., 1999; Linnevers et al., 1997). Proteases (20 nM) were incubated in the appropriate assay buffer with Spi2A at 200 nM (at least 10-fold excess of inhibitor to maintain pseudo-first order conditions) for 1 h at 37° C. Control samples included only the enzyme, without the inhibitor. At the end of 1 h protease activity was assayed. […] Substrate hydrolysis was measured in a fluorescence microtiter plate reader (Spectramax Gemini XS, Molecular Devices). Percentage inhibition was calculated from the residual enzyme activity compared to no Spi2A controls. […]

Assay [2] has as its target T1, cathepsin B. The assay is described as follows: Kinetics of cathepsin B inhibition by Spi2A. The format is biochemical.
In assay [3] the test system is caspase-8, 9 and 3, and Bid. Description: Death effector assays: caspase and Bid activation (western blots, enzyme assays), RelA^−/− MEFs. The note with it: TNF-α 0.2 ng/ml, CHX 0.1 μg/ml; FIG. 5A, 5B. The format is cell-based, mouse. The protocol: Death effector assays. Death effector pathways were induced in […] MEFs by treatment TNF-α (0.2 ng/ml) and CHX (0.1 μg/ml). Assays for executioner proteases (caspases and cathepsin B) were performed on crude cytoplasmic extracts (Stegh et al., 2000). Briefly, MEFs (10^6) were lysed in 10 mM Tris-Cl, pH 7.5, 100 mM NaCl, 1 mM EDTA, 0.01% Triton X-100 (50 μl) for 30 min on ice then centrifuged at 15,000 g for 30 min at 4° C. and the supernatant recovered. Protein concentration was determined by Lowry assay (DC-protein assay kit, Biorad). […]
Colorimetric assays for capases were performed in reaction buffer (50 mM HEPES, pH 7.4, 100 mM NaCl, 10 mM DTT, 1 mM EDTA, 10% glycerol, 0.1% CHAPS) at 37° C. on crude cytoplasmic extracts using p-Nitoaniline (pNA)-labeled substrates (Calbiochem) specific for caspases 3 and 7 (Ac-DEVD-pNA), caspase 8 (Ac-IETD-pNA), caspase 9 (Ac-LEHD-pNA), each at 0.2 mM. Specific activity was determined by subtracting the apparent activity detected after 1 h pre-incubation of extract with the pan-caspase inhibitor Z-VAD.fmk at 50 μM (ICN Biomedicals Inc), then normalizing for the amount of protein. […] Specific activity was determined by subtracting the apparent activity detected after 30 min pre-incubation of extract at 37° C. with the cathespin B inhibitor CA-074 Me at 30 μM (Peptide Institute) then normalizing for the amount of protein.
(In general: A western blot detects proteins with antibodies after separation by electrophoresis.)

The test system of a further assay is NIH3T3 cells. Description: TNF-α death assays, NIH3T3 cells. The class given is cell-based. As to conditions: TNF-α + Z-VAD.fmk 50 μM; FIG. 9B, 10B. The protocol:
TNF-α death assays. NIH3T3 cells were transduced with MIGR1 retrovirus (Zhang and Ren, 1998) encoding either GFP alone, or Spi2A in the forward (sense) or reverse (antisense) orientation and stable clones generated, as described previously (Liu et al., 2003). Cells were treated with TNF-α (R&D) and after 16 h the number of live GFP-positive adherent cells were counted by flow cytometry (Liu et al., 2003). Live cells were defined as those that excluded propidium iodide (PI-negative) and had the appropriate size, as defined by forward and side light scatter characteristics. Caspase activity was inhibited by pre-treatment of cells or extracts for 1 h with Z-VAD.fmk (ICN Biomedicals Inc; 50 μM). […] In anti-sense experiments the level of Spi2A mRNA was quantitated by real-time PCR using primers and probes specific for Spi2A (Inglis et al., 1991) and cyclofilin A control mRNA (Medhurst et al., 2000), 4 h after treatment with Z-VAD.fmk ([…]) and TNF-α (10 ng/ml), as described previously (Liu et al., 2003).

B1: Spi2A: murine Spi2A polypeptide, SEQ ID NO:2; purified as C-terminal 3×FLAG protein or expressed from MIGR1 retrovirus in cells and bone-marrow chimeras (protein, listed as Mus musculus)
chain: MAGVSPAVFGCPDVTLGRNTAVREVQENVTSVDSLTLVSSNTDFAFSLYRKLVLKNPDENVVFSPFSICTALALLSLGAKSNTLKEILEGLKFNLTETPEPDIHQGFRYLLDLLSQPGNQVQISTGSALFIEKHLQILAEFKEKARALYQAEAFTADFQQPLKATKLINDYVSNHTQGKIKELISGLKESTLMVLVNYIYFKGKWKNPFDPNDTFKSEFYLDEKRSVIVSMMKTGYLTTPYFRDEELSCTVVELKYTGNASAMFILPDQGRMQQVEASLQPETLRKWKNSLKPRMIHELRLPKFSISTDYSLEHILPELGIREVFSTHADLSAITGTKDLRVSQVVHKAVLDVAEKGTEAAAATGMAGVGCCAVFDFLEIFFNRPFLMIISDTKAHIALFMAKVTNPERSTNFPNGEGASSQRLESKRLCFGDPLCLIGQ
modifications: C-terminal 3xFLAG tag
notes: purified as C-terminal 3×FLAG protein or expressed from MIGR1 retrovirus in cells and bone-marrow chimeras
Take B1: the “Inhibition of protease by Spi2A (percentage inhibition)” value in the assay with cathepsin B [1] was “extended to all of the lysosomal, papain-like proteases that were examined”. For the same molecule, the “second-order association rate constant for the inhibition of cathepsin B” value with cathepsin B [2] (20 nM cathepsin B, 5 μM (Z-FR)2-R110, 200 or 400 nM Spi2A, pseudo-first order conditions) is > 10^6 M^−1 s^−1. For the same molecule, in the assay with cathepsin B [2] (dead time ˜30 s, 200 or 400 nM Spi2A), the “Inhibition of cathepsin B within the dead time of the measurement” value was “completely inhibited”. Besides, the “Activation of apical and executioner caspases and Bid” value in assay [3] is listed as “suppressed”. Besides, in the assay with NIH3T3 cells, the “Survival against TNF-α in the absence of caspase activity, transduced clones vs GFP” value is given as “markedly improved survival”.

The values above are taken from patent US20090324700A1, “METHODS AND COMPOSITIONS FOR THE INHIBITION OF CATHEPSINS” (priority 2003, published 2009).
